Measured values: patent publication US7585836B2, “Bi-lateral local renal delivery for treating congestive heart failure and for BNP therapy” (priority 2004, dated 2009)
“And” between values parts separate entries of the source, which are not always exact repeats. Identical values can stand only once.

Tests used:
canine model = assay: Blood pressure (mean arterial pressure) response to IR and IV BNP during phenylepherine-induced vasoconstriction; format: in vivo; details: Canine #1, constricted vascular state induced by phenylepherine
Method: (§1) IR versus IV administration of human recombinant BNP (Natrecor® agent, Scios, Inc., Johnson & Johnson) was compared in the canine model (two animals). IR infusion was achieved using the FlowMedica Benephit™ Infusion System (FlowMedica, Inc.). IV and IR administration was performed in each animal sequentially, and the administration periods were separated by five days to allow for washout and re-acclimation of the animals. IV administration was conducted on the first day in both animals. Other than the route of BNP administration, all other parameters were identical between the IV and IR administration days in both dogs.
(§2) Canine #1 received a 2 mcg/kg/min bolus of BNP followed immediately by a 0.15 mcg/kg/min BNP infusion for 90 minutes, followed by a 2-hour washout period. Then vasoconstriction was induced via phenylepherine until mean arterial pressure (MAP) was increased by approximately 30% (approximately 1 hour), and then BNP was again administered at 0.15 mcg/kg/min for 90 minutes.
(§3) Key endpoints included serum levels of BNP (pharmacokinetics, both animals) following IR and IV BNP administration, and blood pressure response in response IR and IV BNP administration (Canine #1 only).

[1] = Pharmacokinetics: serum BNP levels after intra-renal (IR) versus intravenous (IV) BNP administration in the canine model; format: in vivo; details: for difference between serum BNP levels with IR versus IV infusion at comparable time points: higher with IV
Method: as §1, §2
Canine #2 received a 2 mcg/kg/min BNP bolus followed immediately by a 4-hour continuous infusion of BNP at 0.15 mcg/kg/min.
as §3

nesiritide [BNP]
maximum reduction in mean arterial pressure (MAP) (canine model; IR BNP 0.15 mcg/kg/min): 15% | maximum reduction in mean arterial pressure (MAP) (canine model; IV BNP 0.15 mcg/kg/min): 50% | difference between serum BNP levels with IR versus IV infusion at comparable time points ([1]; Canine #1, 2 mcg/kg/min bolus then 0.15 mcg/kg/min infusion): 75% and 66% | difference between serum BNP levels with IR versus IV infusion at comparable time points ([1]; Canine #2, 2 mcg/kg/min bolus then 4-hour infusion at 0.15 mcg/kg/min): 61% and 69% | lower systemic levels with IR than with IV administration of the same dose ([1]; both canines, same dose): 61-75% | average reduction of steady-state plasma BNP levels, IR versus systemic (IV) administration ([1]; two dogs, given dose IR versus IV): 63%
